# From paper doi:10.1101/2021.01.13.426364 (bioRxiv, 2021)
# Experiments:
# [1] = target: T1, Variant Surface Glycoprotein VSG2 on living VSG2-expressing bloodstream form trypanosomes (Trypanosoma brucei, UniProt P26332); assay: flow cytometry on cells
# [2] = target: T2, Variant Surface Glycoprotein VSG2, soluble purified form (Trypanosoma brucei, UniProt P26332); assay: SEC
# [3] = target: T1, Variant Surface Glycoprotein VSG2 on …; assay: Western blot of washed cells after incubation with nanobody
# [4] = target: T2, Variant Surface Glycoprotein VSG2, …; assay: crystal structure
# crystal structure = target: the molecule itself; assay: crystal structure
binder,measurement,setting,value
NB19_(VSG2) sortagged with FAM (VHH) VHH: QVQLQESGGGLVQAGGSLRLSCAASERTFSSLGMGWFRQGPGKEREFAAAISWSGVSTYYADSVKGRFTISRDNDKNTVYLQMNSLKPDDTAVYYCAATSSWNDMALKSAGWYEYWGQGTQVTVSS,binding result,[1],binds
NB19_(VSG2) mutant E114A (VHH) VHH: QVQLQESGGGLVQAGGSLRLSCAASERTFSSLGMGWFRQGPGKEREFAAAISWSGVSTYYADSVKGRFTISRDNDKNTVYLQMNSLKPDDTAVYYCAATSSWNDMALKSAGWYAYWGQGTQVTVSS,binding result,[2],no binding
NB19_(VSG2) mutant Y115A (VHH) VHH: QVQLQESGGGLVQAGGSLRLSCAASERTFSSLGMGWFRQGPGKEREFAAAISWSGVSTYYADSVKGRFTISRDNDKNTVYLQMNSLKPDDTAVYYCAATSSWNDMALKSAGWYEAWGQGTQVTVSS,binding result,[2],no binding
NB19_(VSG2) mutant E114/Y115A (VHH) VHH: QVQLQESGGGLVQAGGSLRLSCAASERTFSSLGMGWFRQGPGKEREFAAAISWSGVSTYYADSVKGRFTISRDNDKNTVYLQMNSLKPDDTAVYYCAATSSWNDMALKSAGWYAAWGQGTQVTVSS,binding result,[2],no binding
NB19_(VSG2) (VHH) VHH: QVQLQESGGGLVQAGGSLRLSCAASERTFSSLGMGWFRQGPGKEREFAAAISWSGVSTYYADSVKGRFTISRDNDKNTVYLQMNSLKPDDTAVYYCAATSSWNDMALKSAGWYEYWGQGTQVTVSS,binding result,[2],binds
same,binding result,[3],binds
NB11_(VSG2) mutant L100A (VHH) VHH: QVQLQESGGGLVQAGGSLTLSCAVSGLTFSNYAMGWFRQAPGKEREFVAAITWDGGNTYYTDSVKGRFTISRDNAKNTVFLQMNSLKPEDTAVYYCAAKALGSSRYELALAGYDYWGQGTQVTVSS,binding result,[2],binds
NB11_(VSG2) mutant L101A (VHH) VHH: QVQLQESGGGLVQAGGSLTLSCAVSGLTFSNYAMGWFRQAPGKEREFVAAITWDGGNTYYTDSVKGRFTISRDNAKNTVFLQMNSLKPEDTAVYYCAAKLAGSSRYELALAGYDYWGQGTQVTVSS,binding result,[2],binds
NB11_(VSG2) mutant S103A (VHH) VHH: QVQLQESGGGLVQAGGSLTLSCAVSGLTFSNYAMGWFRQAPGKEREFVAAITWDGGNTYYTDSVKGRFTISRDNAKNTVFLQMNSLKPEDTAVYYCAAKLLGASRYELALAGYDYWGQGTQVTVSS,binding result,[2],binds
NB11_(VSG2) triple mutant L100/L101/S103 (VHH) VHH: QVQLQESGGGLVQAGGSLTLSCAVSGLTFSNYAMGWFRQAPGKEREFVAAITWDGGNTYYTDSVKGRFTISRDNAKNTVFLQMNSLKPEDTAVYYCAAKAAGASRYELALAGYDYWGQGTQVTVSS,binding result,[2],no binding
NB14_(VSG2) sortagged with FAM (VHH) VHH: QVQLQESGGGLVQAGGSLRLSCEASGLTFSNYAMAWFRQAPEKEREFVAGISWTGSRTYYADSVRGRFTTSRDGHKNTVYLQMNDLKPEDTAVYLCAADLLGSGKDGTSVYEYWGQGTQVTVSS,binding result,[1],binds
NB14_(VSG2) (VHH) VHH: QVQLQESGGGLVQAGGSLRLSCEASGLTFSNYAMAWFRQAPEKEREFVAGISWTGSRTYYADSVRGRFTTSRDGHKNTVYLQMNDLKPEDTAVYLCAADLLGSGKDGTSVYEYWGQGTQVTVSS,binding result,[4],binds
same,binding result,[3],binds
"Variant Surface Glycoprotein VSG2, soluble purified form (natural protein, Trypanosoma brucei, UniProt P26332 27-459, looked up) AAEKGFKQAFWQPLCQVSEELDDQPKGALFTLQAAASKIQKMRDAALRASIYAEINHGTNRAKAAVIVANHYAMKADSGLEALKQTLSSQEVTATATASYLKGRIDEYLNLLLQTKESGTSGCMMDTSGTNTVTKAGGTIGGVPCKLQLSPIQPKRPAATYLGKAGYVGLTRQADAANNFHDNDAECRLASGHNTNGLGKSGQLSAAVTMAAGYVTVANSQTAVTVQALDALQEASGAAHQPWIDAWKAKKALTGAETAEFRNETAGIAGKTGVTKLVEEALLKKKDSEASEIQTELKKYFSGHENEQWTAIEKLISEQPVAQNLVGDNQPTKLGELEGNAKLTTILAYYRMETAGKFEVLTQKHKPAESQQQAAETEGSCNKKDQNECKSPCKWHNDAENKKCTLDKEEAKKVADETAKDGKTGNTNTTGSS",binding result,crystal structure,binds
NB9_(VSG2) (VHH) VHH: QVQLQESGGGLVQAGGSLRLSCTTSGLTFSNYAFSWFRQAPGEEREFVGAISWSGGRTDYADSVKGRFTISRDNAKNTFYLQMNSLKTEDTAVYYCAADLLGEGSRRSEYEYWGQGTQVTVSS,binding result,[4],binds
same,binding result,[3],binds
NB9_(VSG2) sortagged with FAM (VHH) VHH: QVQLQESGGGLVQAGGSLRLSCTTSGLTFSNYAFSWFRQAPGEEREFVGAISWSGGRTDYADSVKGRFTISRDNAKNTFYLQMNSLKTEDTAVYYCAADLLGEGSRRSEYEYWGQGTQVTVSS,binding result,[1],binds
